From US20140227179A1 (published 2014)

Molecular target: T1, MUC5ac mucin (PAM4 antigen) from CaPan1 human pancreatic carcinoma (human, UniProt P98088 28-5654, limits assumed, heavily glycosylated native mucin)
T1 construct: The antigen was never used as a pure recombinant protein; also called CaPan1 Ag; CaPan1 antigens
Assay: ELISA on target mucin antigen (FIG. 9)

B1: PAM4-F(ab′)2 (other)
chain 1: EVQLQESGPELVKPGASVKMSCKASGYTFPSYVLHWVKQKPGQGLEWIGYINPYNDGTQYNEKFKGKATLTSDKSSSTAYMELSRLTSEDSAVYYCARGFGGSYGFAYWGQGTLITVSA
chain 2: DIVMTQSPAIMSASPGEKVTMTCSASSSVSSSYLYWYQQKPGSSPKLWIYSTSNLASGVPARFSGSGSGTSYSLTISSMEAEDAASYFCHQWNRYPYTFGGGTKLEIK
**Q.** B1 was tested. Which EC50 did it give?
**A.** 1.83 nM
